Patent publication US20120015885A1 (published 2012)

How the values were obtained:
[1] = target: calcium/calmodulin (CaM)-dependent protein kinase II (CaMKII) (UniProt P11275 1-478); experiment: cell-based or functional assay
[2] = target: 2-chloro-(ε-amino-Lys75)-[6-(4-N,N-diethylaminophenyl)-1,3,5-triazin-4-yl]calmodulin (TA-CaM) (UniProt P0DP23 2-149); experiment: competition with CBD for TA-CaM, fluorescence
CaMKI = experiment: cell-based or functional assay
biotinylated CaM = biotinylated CaM (UniProt P0DP23 2-149); experiment: slot blot with biotinylated CaM (FIG. 9E) and TA-CaM competition (FIG. 9G)

Chain of calcium/calmodulin (CaM)-dependent protein kinase II (CaMKII) (P11275 whole entry): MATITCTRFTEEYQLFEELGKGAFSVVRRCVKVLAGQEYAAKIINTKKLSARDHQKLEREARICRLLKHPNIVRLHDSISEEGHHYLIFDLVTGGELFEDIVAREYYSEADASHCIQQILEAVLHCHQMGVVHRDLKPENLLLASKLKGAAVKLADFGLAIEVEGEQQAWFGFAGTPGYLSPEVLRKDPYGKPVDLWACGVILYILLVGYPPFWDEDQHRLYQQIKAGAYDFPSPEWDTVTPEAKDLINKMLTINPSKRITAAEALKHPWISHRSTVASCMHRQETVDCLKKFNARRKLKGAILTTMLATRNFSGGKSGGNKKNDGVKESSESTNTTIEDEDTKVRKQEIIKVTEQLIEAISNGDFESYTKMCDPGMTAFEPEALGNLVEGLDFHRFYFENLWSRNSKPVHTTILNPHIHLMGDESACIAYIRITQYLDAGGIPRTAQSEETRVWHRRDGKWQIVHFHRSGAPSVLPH

For KRAPKLGQIGRQKAVVIED [V12Q mutant of CN19a2v], the “IC50, CaMKII activity” value [1] was roughly 1 nM.

With KRPPKLGQIGRSKRVVIEDD [CN20] the “IC50, phosphorylation of syntide 2 by CaMKII” value (“IC50, phosphorylation” below) [1] was roughly 100 nM.

B1: antCN27 (peptide)
peptide: RQIKIWFQNRRMKWKKRPPKLGQIGRSKRVVIEDDRIDDVLK
notes: a final (K) of ant was replaced by the first K of the CN peptide in the fusion
Work on B1 yielded a Kd [2] of roughly 1 nM.

In the case of KRPPKLGQIGRSKAVVIED [CN19 R14A], the “IC50, CaMKII activity” value [1] is reported as less than 10 nM and the “fold increase of potency against CN19 wild type” value [1] is reported as greater than 10 fold.

For KRPPKLGQIGRSKRVVIED [CN19], the “IC50, CaMKI activity” value (CaMKI) was roughly 36000 nM and the “IC50, phosphorylation” value [1] was roughly 100 nM.

For KRAPKLGQIGRVKAVVIED [CN19a2v], the “IC50, CaMKI activity” value (CaMKI) was roughly 18000 nM, the “IC50, CaMKII activity towards syntide 2” value [1] was roughly 20 nM and the “fold increase of potency against CN19” value [1] was roughly 5 fold.

B2: ant (peptide)
peptide: RQIKIWFQNRRMKWK
notes: whether the free peptide had it is not clear; also called ant peptide; penetratin
Binder B2 has a Kd [2] of roughly 5 nM.

In the case of KRAPKLGQIGRVKAVDIED [V16D mutant of CN19a2v], the “IC50, CaMKII activity” value [1] is reported as roughly 1 nM.

KRPPKLGQIGRSKRVVIEDDR [CN21] was tested, and the “IC50, phosphorylation” value [1] was roughly 100 nM.

KRPPKLGQIGRSKRVVIEDDRIDDVLK (also called CaM-KIINtide) [CN27]: no binding (biotinylated CaM).

For KRAPKLGQIGRQKAVDIED [CN19o], the “IC50, CaMKI activity” value (CaMKI) was roughly 38000 nM, the “IC50, CaMKII activity” value [1] was roughly 0.75 nM and the “fold increase of potency against CN19” value [1] was greater than 125 fold. The “selectivity for CaMKII vs CaMKI” value [1] was roughly 50000 fold.
